From patent US20050015820A1

Columns and labels:
[1] = target: melanocortin 3 receptor (MC3-R) (mouse) (UniProt P33033); test: cell-based or functional assay
[2] = target: µ opioid receptor (MOP-R) (mouse) (UniProt P42866); test: cell-based or functional assay
Sequence of µ opioid receptor (MOP-R) (mouse) (P42866 whole entry): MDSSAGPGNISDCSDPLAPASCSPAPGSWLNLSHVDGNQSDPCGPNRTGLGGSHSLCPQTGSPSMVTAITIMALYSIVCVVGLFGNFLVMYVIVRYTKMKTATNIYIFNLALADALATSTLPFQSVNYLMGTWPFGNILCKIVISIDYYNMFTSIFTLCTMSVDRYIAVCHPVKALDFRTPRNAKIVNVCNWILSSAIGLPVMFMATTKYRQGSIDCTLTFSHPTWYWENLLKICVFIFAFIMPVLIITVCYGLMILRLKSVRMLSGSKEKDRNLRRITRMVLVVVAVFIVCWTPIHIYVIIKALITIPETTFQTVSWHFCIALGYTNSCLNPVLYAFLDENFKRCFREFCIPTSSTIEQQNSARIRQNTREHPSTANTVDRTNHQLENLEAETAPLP

Sequence of melanocortin 3 receptor (MC3-R) (mouse) (P33033 whole entry): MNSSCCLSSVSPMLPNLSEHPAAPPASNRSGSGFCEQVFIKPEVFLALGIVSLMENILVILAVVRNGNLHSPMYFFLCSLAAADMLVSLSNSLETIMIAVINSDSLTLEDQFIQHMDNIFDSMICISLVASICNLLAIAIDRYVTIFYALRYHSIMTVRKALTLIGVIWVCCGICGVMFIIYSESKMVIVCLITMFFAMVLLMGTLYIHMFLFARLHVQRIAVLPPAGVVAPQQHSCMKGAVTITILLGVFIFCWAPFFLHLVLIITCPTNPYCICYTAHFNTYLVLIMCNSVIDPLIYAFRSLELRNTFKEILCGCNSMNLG

Substance	hyperpolarization of POMC neurons (7 nM, 9 of 15 neurons) [1]	increase of the frequency of GABAergic IPSCs recorded from POMC neurons (7 nM, 3 of 4 neurons) [1]	hyperpolarization of the membrane potential of POMC cells (Met-Enk 30 µM, whole cell recording, n=10) [2]
D-Trp^8-γMSH (peptide)	-5.5 mV	280%	–
met-enkephalin (from UniProt P01210 100-104) (peptide)	–	–	10 to 20 mV
